Assay results taken from US20070265189A1 (published 2007).

B1: B6Hα-3-F1-IR (peptide)
peptide: DYKDCSMAAVAEAGDDDDPFYHKLSELCQGSAAAGAP
notes: not shown: rest of the phage display fusion (remainder of E-Tag, phage coat protein)
B2: 20E2A-3-A4-IGFR (peptide)
peptide: DYKDAGSVTSFYDAMEQLVATGTSAAAAGAP
notes: as for B1
B3: 20E2A-3-A3-IGFR (peptide)
peptide: DYKDGHYFGSFYDAIDQLVAGMLPGAAAGAP
notes: as for B1
B4: B6Hα-1-B3-IR (peptide)
peptide: DYKDGCITAENGAGDPFYHKLSELGGCSAAAGAP
notes: as for B1
B5: R20β-4-E8-IR (peptide)
peptide: DYKDVRGFQGGTVWPGYEWLRNAAAAAGAP
notes: as for B1
B6: B6Hα-2-D8-IR (peptide)
peptide: DYKDSSETAKMVTGTRDDPFYHKLSELVQGSAAAGAP
notes: as for B1
B7: B6L-3-G5-IR (peptide)
peptide: DYKDAETSAQVGWQRLWSVWPGDHWSTLDPFYHKLSELLRESGAAAAGAP
notes: as for B1
B8: B6Hα-3-E6-IR (peptide)
peptide: DYKDCGAKMTGTPNDPFYHKLSELLQRGAAAGAP
notes: as for B1
B9: 20E2Bβ-3-C7-IR (peptide)
peptide: DYKDQSGSGDFYDWLSRLIRGNGDGAAAGAP
notes: as for B1
B10: B6Hα-3-E5-IR (peptide)
peptide: DYKDRCGDEEGWQENRRDDPFYHKLSELFGGCAAAGAP
notes: as for B1
B11: 20E2A-4-G11-IGFR (peptide)
peptide: DYKDMNVFVSFYDAIDQLVCQRIGCAAAGAP
notes: as for B1
B12: 40F-4-D1-IGFR (peptide)
peptide: DYKDLSCLAYSRHGIWRPSTDLGLGRSVGEGSVSTRWRGYDWFEAAAGAP
notes: as for B1
B13: B6Hα-3-F7-IR (peptide)
peptide: DYKDSRVAATKEKRPSDDPFYHKLSELLQGSAAAGAP
notes: as for B1

What follows are binders tested against T1, Soluble IGF-1R (sIGF-1R), R&D Systems Cat. # 391-GR/CF (UniProt P08069 31-935, limits assumed) (assay: phage ELISA).
T1 construct: extracellular domain

Row | Binder | IGF-1R/IR comparison | Ratio over Background
1 | SSIGGGFHENFYDWFSRQLSQSPPLK [H2CA-4-F7-IGFR] | 4.1 | 3.2
2 | AETSVQVGWIRLQSVWPGEHWNTVDPFYHKLSELLRGSGA [B6L-4-D7-IR] | 3.4 | 4.8
3 | GCEVIVEEGDSADPFYHKLSELCQGS [B6Hα-2-D1-IR] | 4.2 | 5.4
4 | SSCDGAGHESFYEWFVRQVSGCRSV [H2CA-3-C8-IGFR] | 4.8 | 5.6
5 | QAVQPGFHEEFYDWFVRQVSTGVGGG [H2CA-4-H4-IGFR] | 4.2 | 4.1
6 | CCLLCRFQQNFYDWFVCQGISRLRPL [H2CA-2-B4-IGFR] | 3.6 | 4.1
7 | PPLASDLDVQFYGWFVQQVSPPGRGG [H2CA-2-B3-IGFR] | 3.6 | 3.8
8 | RAGSSDFHEDFYEWFVRQVSLSLKGK [H2CA-2-B9-IGFR] | 4.2 | 7
9 | MMVVDGFYDALHQLVVAQSLG [20E2A-3-D10-IGFR] | 3.9 | 6.9
10 | LSVALSFYDALGQLVAGEGRW [20E2A-3-A12-IGFR] | 3.9 | 4.3
11 | RCGRELYHSTFYDWFDRQVAGRTCPS [H2CA-1-A7-IGFR] | 3.7 | 2.2
12 | QSPVGSSHEDFYDWFFRQVAQSGAHQ [H2CA-3-D6-IGFR] | 4 | 9
13 | GIISQSCPESFYDWFAGQVSDPWWCW [H2CA-4-G9-IGFR] | 16 | 9.5
14 | GFREGNFYEWFQAQVT [E4Dα-4-H2-IR] | 4.1 | 33.9
15 | LRRQAPVEENFYDWFVRQVSGDRVGG [H2CA-3-D7-IGFR] | 3.7 | 3
16 | TLDGGSFEEQFYDWFVRQLSYRTNPD [H2CA-4-G11-IGFR] | 3.9 | 9.5
17 | FYVQQWGHENFYDWFDRQVSQSGGAG [H2CA-4-F1-IGFR] | 3.8 | 3.5
18 | SRAKVEAEMPDSGDPFYHKLSELLASG [B6Hα-1-A3-IR] | 3.3 | 2.6
19 | APDPSDFQEIFYDWFVRQVSRMPGGG [H2CA-1-A3-IGFR] | 5.1 | 3.8
20 | NYRRQVFNGNFYDWFDRQVFSLVTPG [H2CA-3-D8-IGFR] | 4 | 7.2
21 | GGTKAVAKVGTRDDPFYHKLSELLQGS [B6Hα-4-G8-IR] | 3.6 | 6.1

The binders below were run against T2, soluble human insulin receptor-immunoglobulin heavy chain chimera (sIR-Fc; Bass et al., 1996) (human, UniProt P06213 28-956, limits assumed) (assay: phage ELISA).
T2 construct: extracellular domain; also called soluble IR (Bass construct); not shown: immunoglobulin heavy chain constant domains

Row | Binder | IR/IGF-1R comparison | Ratio over Background
22 | SSIGGGFHENFYDWFSRQLSQSPPLK [H2CA-4-F7-IGFR] | 0.2 | 0.8
23 | AETSVQVGWIRLQSVWPGEHWNTVDPFYHKLSELLRGSGA [B6L-4-D7-IR] | 0.3 | 1.4
24 | GCEVIVEEGDSADPFYHKLSELCQGS [B6Hα-2-D1-IR] | 0.2 | 1.3
25 | SSCDGAGHESFYEWFVRQVSGCRSV [H2CA-3-C8-IGFR] | 0.2 | 1.2
26 | QAVQPGFHEEFYDWFVRQVSTGVGGG [H2CA-4-H4-IGFR] | 0.2 | 1
27 | CCLLCRFQQNFYDWFVCQGISRLRPL [H2CA-2-B4-IGFR] | 0.3 | 1.1
28 | PPLASDLDVQFYGWFVQQVSPPGRGG [H2CA-2-B3-IGFR] | 0.3 | 1
29 | RAGSSDFHEDFYEWFVRQVSLSLKGK [H2CA-2-B9-IGFR] | 0.2 | 1.7
30 | MMVVDGFYDALHQLVVAQSLG [20E2A-3-D10-IGFR] | 0.3 | 1.8
31 | LSVALSFYDALGQLVAGEGRW [20E2A-3-A12-IGFR] | 0.3 | 1.1
32 | RCGRELYHSTFYDWFDRQVAGRTCPS [H2CA-1-A7-IGFR] | 0.3 | 0.6
33 | QSPVGSSHEDFYDWFFRQVAQSGAHQ [H2CA-3-D6-IGFR] | 0.3 | 2.2
34 | GIISQSCPESFYDWFAGQVSDPWWCW [H2CA-4-G9-IGFR] | 0.1 | 0.6
35 | GFREGNFYEWFQAQVT [E4Dα-4-H2-IR] | 0.2 | 8.2
36 | LRRQAPVEENFYDWFVRQVSGDRVGG [H2CA-3-D7-IGFR] | 0.3 | 0.8
37 | TLDGGSFEEQFYDWFVRQLSYRTNPD [H2CA-4-G11-IGFR] | 0.3 | 2.5
38 | FYVQQWGHENFYDWFDRQVSQSGGAG [H2CA-4-F1-IGFR] | 0.3 | 0.9
39 | SRAKVEAEMPDSGDPFYHKLSELLASG [B6Hα-1-A3-IR] | 0.3 | 0.8
40 | APDPSDFQEIFYDWFVRQVSRMPGGG [H2CA-1-A3-IGFR] | 0.2 | 0.8
41 | NYRRQVFNGNFYDWFDRQVFSLVTPG [H2CA-3-D8-IGFR] | 0.3 | 1.8
42 | GGTKAVAKVGTRDDPFYHKLSELLQGS [B6Hα-4-G8-IR] | 0.3 | 1.7

Each binder was assayed against T3, Soluble IGF-1R (R&D Systems, Cat. # 391-GR/CF) (UniProt P08069 31-935, limits assumed) (assay: phage ELISA: IGF-1R ratio over background divided by IR ratio over background).
T3 construct: extracellular domain; also called sIGF-1R; IGFR

Row | Binder | Comparison IGF-1R/IR [ratio]
43 | B1 | 1.8
44 | B2 | 1.4
45 | B3 | 1.9
46 | B4 | 2.9
47 | B5 | 9.7
48 | B6 | 3
49 | B7 | 1.4
50 | B8 | 1.9
51 | B9 | 2
52 | B10 | 2.9
53 | B11 | 2.6
54 | B12 | 13.1
55 | B13 | 3.1

What follows are binders tested against T4, Insulin receptor prepared according to Bass et al., 1996 (human, UniProt P06213 28-956, limits assumed) (assay: phage ELISA: IR ratio over background divided by IGF-1R ratio over background).
T4 construct: extracellular domain; also called IR; soluble IR (Bass construct); not shown: immunoglobulin constant domains (Fc or lambda) of the Bass construct

Row | Binder | Comparison IR/IGF-1R [ratio]
56 | B1 | 0.5
57 | B2 | 0.7
58 | B3 | 0.5
59 | B4 | 0.3
60 | B5 | 0.1
61 | B6 | 0.3
62 | B7 | 0.7
63 | B8 | 0.5
64 | B9 | 0.5
65 | B10 | 0.3
66 | B11 | 0.4
67 | B12 | 0.1
68 | B13 | 0.3

These binders were tested against T3, Soluble IGF-1R (R&D Systems, Cat. # …) (assay: not given).

Row | Binder | Ratio over Background, IGF-1R [ratio over background]
69 | B1 | 2.4
70 | B2 | 2.5
71 | B3 | 3
72 | B4 | 3.2
73 | B5 | 34.9
74 | B6 | 3
75 | B7 | 2
76 | B8 | 2.3
77 | B9 | 3.1
78 | B10 | 2.9
79 | B11 | 3.3
80 | B12 | 4.6
81 | B13 | 3.1

These binders were tested against T4, Insulin receptor prepared according to … (assay: not given).

Row | Binder | Ratio over Background, IR [ratio over background]
82 | B1 | 1.3
83 | B2 | 1.8
84 | B3 | 1.5
85 | B4 | 1.1
86 | B5 | 3.6
87 | B6 | 1
88 | B7 | 1.4
89 | B8 | 1.2
90 | B9 | 1.5
91 | B10 | 1
92 | B11 | 1.3
93 | B12 | 0.3
94 | B13 | 1
